These results are taken from patent US20220396632A1 (VERSEAU THERAPEUTICS, published 2022).

Non-standard residues stand in square brackets, D forms with d. No end group written: not given here. *: point of attachment. Biotin = O=C1N[C@H]2[C@H](CS[C@H]2CCCCC(=O)*)N1; sY = N[C@@H](Cc1ccc(OS(=O)(=O)O)cc1)C(=O)O

The target in test [1] is T1, Sulfotyr fibrinogen γ peptide (not fully specified; Y8 and Y12 sulfated (SO3); C-terminal biotin).
T1 construct: also called Fibrinogen gamma peptide; human sulfotyrosinylated fibrinogen peptide
T1 peptide: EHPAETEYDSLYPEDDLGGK
Put plainly: ELISA, 50 nM mAb. The protocol:
(§1) Recombinant PSGL-1-hFc1 chimera protein consisting of PSGL-1's extracellular domain (ECD) served as a positive control. […] Primary antibody was added (25 ul per well) in duplicate at 50 nM in assay buffer (blocking buffer containing 0.05% Tween®20) into test and control (just blocked) wells and the plate incubated for 45 min at 37° C.

The next test has as its target T2, SulfoTyr C4 peptide (not fully specified; Y4, Y7 and Y9 sulfated (SO3); C-terminal biotin).
T2 construct: also called C4 alpha chain peptide; human sulfotyrosinylated C4 peptide
T2 peptide: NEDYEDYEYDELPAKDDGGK
Put plainly: ELISA, 50 nM mAb. The protocol: as §1

Test [2] concerns the target T3, Sulfotyrosine CCR2b biotin peptide (human).
T3 construct: also called CCR2b peptide
T3 peptide: TTFFD[sY]D[sY]GAPSHGGK(Biotin)
Put plainly: ELISA, 50 nM mAb. The protocol: as §1
(In general: ELISA stands for enzyme-linked immunosorbent assay.)

Test [3] concerns the target T4, Human complement C4 protein (Millipore Sigma, Cat. 204886) (human, UniProt P0C0L4 20-675; P0C0L4 680-1446; P0C0L4 1454-1744, limits assumed, natural sulfotyrosines).
T4 construct: mature
Put plainly: ELISA, 50 nM mAb. As for the experimental part: as §1

The target of test [4] is T5, Human fibrinogen protein (ThermoFisher, RP-43142) (human, UniProt P02671 20-629; P02675 31-491; P02679 27-453, limits assumed, natural sulfotyrosines).
T5 construct: mature; Native dimer with 3 pairs of non-identical chains; also called gamma-fibrinogen; γ fibrinogen protein
T5 sequence (looked up) 1: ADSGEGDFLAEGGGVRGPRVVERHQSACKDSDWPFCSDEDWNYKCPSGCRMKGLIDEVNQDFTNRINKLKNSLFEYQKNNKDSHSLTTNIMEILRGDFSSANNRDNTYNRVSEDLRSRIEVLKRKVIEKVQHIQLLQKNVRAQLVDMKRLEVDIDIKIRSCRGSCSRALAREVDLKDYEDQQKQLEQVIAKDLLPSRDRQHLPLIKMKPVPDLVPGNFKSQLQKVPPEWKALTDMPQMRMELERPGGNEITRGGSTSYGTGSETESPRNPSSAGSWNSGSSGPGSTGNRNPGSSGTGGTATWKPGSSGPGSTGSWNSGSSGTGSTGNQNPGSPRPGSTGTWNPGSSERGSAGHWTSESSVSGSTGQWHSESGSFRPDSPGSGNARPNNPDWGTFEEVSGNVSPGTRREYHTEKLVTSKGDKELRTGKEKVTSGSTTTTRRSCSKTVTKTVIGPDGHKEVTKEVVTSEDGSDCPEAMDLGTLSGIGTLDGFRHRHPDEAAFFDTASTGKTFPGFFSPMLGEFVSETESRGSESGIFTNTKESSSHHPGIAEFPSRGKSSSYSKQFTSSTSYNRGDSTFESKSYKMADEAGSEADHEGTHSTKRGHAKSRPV
T5 sequence (looked up) 2: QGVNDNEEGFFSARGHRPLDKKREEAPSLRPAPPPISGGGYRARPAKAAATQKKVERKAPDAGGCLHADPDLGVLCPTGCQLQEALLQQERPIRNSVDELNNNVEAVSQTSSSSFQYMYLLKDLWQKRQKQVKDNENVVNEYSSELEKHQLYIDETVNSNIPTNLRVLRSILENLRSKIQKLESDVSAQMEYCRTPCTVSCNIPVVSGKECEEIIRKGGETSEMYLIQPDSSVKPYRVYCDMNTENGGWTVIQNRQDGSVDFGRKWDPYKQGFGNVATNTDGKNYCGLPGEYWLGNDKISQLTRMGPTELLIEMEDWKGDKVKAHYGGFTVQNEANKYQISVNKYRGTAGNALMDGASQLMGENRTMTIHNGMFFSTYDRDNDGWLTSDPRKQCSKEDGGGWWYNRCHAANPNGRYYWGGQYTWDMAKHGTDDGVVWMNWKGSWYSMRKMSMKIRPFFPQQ
T5 sequence (looked up) 3: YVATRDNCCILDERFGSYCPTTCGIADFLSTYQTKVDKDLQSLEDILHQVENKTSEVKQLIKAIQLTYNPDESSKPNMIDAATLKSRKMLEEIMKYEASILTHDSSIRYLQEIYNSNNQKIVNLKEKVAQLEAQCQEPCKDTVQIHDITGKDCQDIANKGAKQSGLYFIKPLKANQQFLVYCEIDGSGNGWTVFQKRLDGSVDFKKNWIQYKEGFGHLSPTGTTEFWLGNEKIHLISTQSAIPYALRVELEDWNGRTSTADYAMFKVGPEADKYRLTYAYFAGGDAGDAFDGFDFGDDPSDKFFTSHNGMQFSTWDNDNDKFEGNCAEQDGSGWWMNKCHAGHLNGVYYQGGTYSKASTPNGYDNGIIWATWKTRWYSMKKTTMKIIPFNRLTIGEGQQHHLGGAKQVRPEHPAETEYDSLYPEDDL
Briefly: ELISA, 50 nM mAb. As for the experimental part:
as §1

In the next test the target is T6, SulfoCCK biotin peptide (human).
T6 construct: also called sulfotyrosine CCK peptide
T6 peptide: SHRISDRD[sY]MGWMDFGGK(Biotin)
Put plainly: ELISA, 50 nM mAb. The protocol:
as §1

Test [5] addresses T7, Recombinant human PSGL-1(ECD)-hFc1 (R&D Systems, Cat. 3345-PS) (human, UniProt Q14242 42-305).
T7 construct: Bought; Gln42-Val295 counted on AAC50061; also called PSGL-1-Fc; PSGL-1-hFc1 chimera; not shown: human IgG1 Fc, Pro100-Lys330
T7 sequence: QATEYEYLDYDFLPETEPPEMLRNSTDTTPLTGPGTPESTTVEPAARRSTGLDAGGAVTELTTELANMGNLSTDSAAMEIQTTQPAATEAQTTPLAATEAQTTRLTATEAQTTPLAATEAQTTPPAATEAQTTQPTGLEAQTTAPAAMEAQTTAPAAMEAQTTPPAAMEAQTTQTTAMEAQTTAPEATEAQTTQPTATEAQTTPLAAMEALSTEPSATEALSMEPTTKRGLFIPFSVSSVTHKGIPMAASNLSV
Briefly: ELISA, 50 nM mAb. As for the experimental part:
as §1

Test [6] deals with T8, Biotin PSGL-1(42-62) peptide, unmodified (human, C-terminal Lys-biotin).
T8 construct: Residues 42-62 followed by GGGK-biotin; also called WT; wild-type
T8 peptide: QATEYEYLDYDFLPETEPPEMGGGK
Put plainly: ELISA, immobilized biotin peptide. The protocol:
(§2) A typical ELISA was performed by coating high binding half-well plates (Corning Cat. #3690) with 3 ug/mL/25 ul per well of biotinylated N-terminal PSGL-1 peptides, which incorporated residues 42 to 62 of the protein, in PBS, pH 7.4, overnight at 4° C. The peptide was unmodified or contained sulfated tyrosine at all 3 tyrosine positions (46, 48, and 51) or at one position (tyr51) (Table 7).
(§3) PSGL-1 protein or peptide served as a positive control. […] […] […] For each antibody, duplicate values were averaged and average assay background was subtracted.

In test [7] the target is T9, Biotin Y46,48,51(SO3) PSGL-1(42-62) peptide (human, sulfotyrosine at Y46, Y48 and Y51; C-terminal Lys-biotin).
T9 construct: also called fully sulfated N-terminal PSGL-1 peptide
T9 peptide: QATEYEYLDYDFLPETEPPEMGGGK
Put plainly: ELISA, immobilized biotin peptide. The protocol: as §2, §3

Test [8] deals with T10, Scrambled Y42,52,63(SO3) PSGL-1(42-62) biotin peptide (sulfotyrosine at peptide positions 1, 11 and 22; C-terminal Lys-biotin).
T10 peptide: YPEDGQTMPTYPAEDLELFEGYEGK
Put plainly: ELISA, immobilized biotin peptide. The protocol:
as §2, §3

In test [9] the target is T11, Sulfotyrosine D6 biotin peptide (human).
T11 construct: also called D6 peptide
T11 peptide: ENSSFY[sY][sY]D[sY]LDEVAFGGK(Biotin)
Put plainly: ELISA, 50 nM mAb. The protocol:
as §1

T4 sequence (P0C0L4 20-675 limits assumed, form in doubt, chain 1 of 3): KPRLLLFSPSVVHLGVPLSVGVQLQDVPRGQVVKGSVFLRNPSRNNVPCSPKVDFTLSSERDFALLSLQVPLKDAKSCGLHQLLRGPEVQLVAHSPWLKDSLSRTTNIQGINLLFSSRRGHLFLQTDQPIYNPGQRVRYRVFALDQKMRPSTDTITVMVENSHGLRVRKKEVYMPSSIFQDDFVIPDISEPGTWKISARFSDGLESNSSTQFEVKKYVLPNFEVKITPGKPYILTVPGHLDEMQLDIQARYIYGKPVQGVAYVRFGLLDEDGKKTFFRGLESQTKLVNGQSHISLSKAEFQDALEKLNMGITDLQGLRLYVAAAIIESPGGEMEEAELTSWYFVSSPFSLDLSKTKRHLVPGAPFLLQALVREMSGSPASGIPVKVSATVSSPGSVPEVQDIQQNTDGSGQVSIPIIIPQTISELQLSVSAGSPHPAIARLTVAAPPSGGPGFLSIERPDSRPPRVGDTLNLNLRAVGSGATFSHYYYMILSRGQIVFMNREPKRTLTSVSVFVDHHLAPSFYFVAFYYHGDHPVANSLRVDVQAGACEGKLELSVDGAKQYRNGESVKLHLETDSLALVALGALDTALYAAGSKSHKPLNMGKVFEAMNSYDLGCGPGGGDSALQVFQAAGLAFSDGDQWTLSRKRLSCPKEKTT
T4 sequence (P0C0L4 680-1446 limits assumed, form in doubt, chain 2 of 3): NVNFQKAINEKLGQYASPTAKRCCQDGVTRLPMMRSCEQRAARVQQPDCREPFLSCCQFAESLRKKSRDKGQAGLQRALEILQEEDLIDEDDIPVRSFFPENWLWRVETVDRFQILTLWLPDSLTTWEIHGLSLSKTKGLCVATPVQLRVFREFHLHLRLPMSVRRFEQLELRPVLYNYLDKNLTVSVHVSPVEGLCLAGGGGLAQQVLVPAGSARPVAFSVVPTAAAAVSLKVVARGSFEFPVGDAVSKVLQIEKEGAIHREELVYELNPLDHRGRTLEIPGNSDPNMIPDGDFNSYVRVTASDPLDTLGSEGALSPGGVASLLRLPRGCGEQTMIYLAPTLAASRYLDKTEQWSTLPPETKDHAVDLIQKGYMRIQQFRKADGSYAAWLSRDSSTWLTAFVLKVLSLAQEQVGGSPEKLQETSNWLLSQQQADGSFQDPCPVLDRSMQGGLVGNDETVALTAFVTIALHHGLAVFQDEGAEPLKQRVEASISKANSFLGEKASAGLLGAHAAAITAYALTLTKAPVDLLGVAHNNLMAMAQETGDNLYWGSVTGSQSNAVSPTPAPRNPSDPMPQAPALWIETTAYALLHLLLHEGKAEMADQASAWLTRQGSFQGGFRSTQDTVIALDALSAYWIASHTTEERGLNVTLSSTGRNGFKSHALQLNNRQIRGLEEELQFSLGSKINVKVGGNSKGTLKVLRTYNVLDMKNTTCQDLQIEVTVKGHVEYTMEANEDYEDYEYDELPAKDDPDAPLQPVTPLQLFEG
T4 sequence (P0C0L4 1454-1744 limits assumed, form in doubt, chain 3 of 3): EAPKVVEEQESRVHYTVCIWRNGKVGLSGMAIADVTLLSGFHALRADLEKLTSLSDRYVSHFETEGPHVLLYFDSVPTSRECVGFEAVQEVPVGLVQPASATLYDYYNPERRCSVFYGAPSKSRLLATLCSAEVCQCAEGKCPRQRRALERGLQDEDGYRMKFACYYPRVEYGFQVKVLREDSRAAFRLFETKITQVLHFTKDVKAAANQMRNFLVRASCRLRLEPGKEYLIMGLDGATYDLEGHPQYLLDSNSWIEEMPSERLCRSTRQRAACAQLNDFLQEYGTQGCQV

B1: 02E06 (antibody, IgG4, V domains shown)
VH: QVQLVQSGAEVKKPGASVKVSCKASGYSFTDYYMHWVRQAPGQGLEWMGWMNPNSGNTGYAQTFQGRVTMTRNTSISTAYMELSSLRSEDTAVYYCARGRRVRGTPTFEYWGQGTLVTVSS
VL: QSVVTQPPSASGTPGQRVTISCSGRSSNIGSYTVNWFQHLPGTGPKLLIYGNNQRPSGVPGRFSGSKSGTSASLAISGLQSNDEATYYCAAWDDSLNGHYVFGTGTKVTVL
As a reminder, the EC50 is the concentration at which the effect is half-maximal. As for B1, the “binding normalized to PSGL-1” value in [1] was 1.34; with SulfoTyr C4 peptide, 1.28; in [2], 1.19; in [3], 1.24; in test [4], 0.2; in the test with SulfoCCK biotin peptide it was 1.21. Further, the A450nm in test [5] was found to be 1.8 A450nm. Further, the figures for the EC50 in test [6] and in test [7] were over 500 nM and 0.17 nM, respectively. The “A450nm, 20 nM mAb” value in [7] amounted to 2.6 A450nm; in test [8] it was 0.12 A450nm.

B2: 08C07 (antibody, IgG4, V domains shown)
VH: QMQLVQSGAEVKKPGSSVKVSCKASGGTFSNYGMIWVRQAPRQGLEWMGRIIPFLDKPDYSEKFQDRITFTADKSTSTVYMELRGLRSDDTAVYYCAKWTSTLQGITTGQTWGQGTLVTVSS
VL: QPVLTQPPSASGTPGQRVTISCSGSSSNIGGSYMYWYQQFPGTAPKLLIYRNNQRPSGVPDRFSGSKSGTSASLAISGLRSEDEADYYCAAWDVSLSGWVFGGGTKLTVL
For B2, the “binding normalized to PSGL-1” value in test [1] came out at 0.49; in the test with SulfoTyr C4 peptide, 0.89; in [2] it was 0.79; in test [3], 0.6; in test [4] it was 0.03; in the test with SulfoCCK biotin peptide, 0.66. The “binding normalized to PSGL-1” value in test [9] amounted to 1.2. Further, the A450nm in test [5] was 1.78 A450nm. In addition, the “A450nm, 20 nM mAb” value in test [7] was determined as 2.6 A450nm. The binding result in [8] is given as “no binding (tested: 20 nM)”.

B3: 02E01 (antibody, IgG4, V domains shown)
VH: EVQLVQSGGGVVQPGRSLRLSCAASGFTFSRYGMHWVRQAPGKGLEWVSVISYDGNNKYYADSVKGRFTISRDNSKNTVYLQMNSLRADDTAVYYCARNVPVTNFGYWGQGTLVTVSS
VL: QSALTQPASVSGSPGQSITISCTGTSSDVGGYNYVSWYQQHPGKAPKLMIYDVSKRPSGVSNRFSGSKSGNTASLTISGLQAEDEADYYCSSYTRPGRVFGGGTKLTVL
Take B3: the “binding normalized to PSGL-1” value was 1.13 in [1]; 0.94 with SulfoTyr C4 peptide; 0.56 in test [2]; 0.87 in [3]; -0.18 in [4]; 0.5 with SulfoCCK biotin peptide. In addition, the “binding normalized to PSGL-1” value in test [9] worked out at 1.48. Besides, the figures for the binding result in [4] and in test [8] were “no binding (tested: 50 nM)” and “no binding (tested: 20 nM)”, respectively. Besides, the results for the “A450nm, 20 nM mAb” value in test [6], in [7] and in test [8] were 2.07 A450nm, 2.5 A450nm and 0.03 A450nm, respectively.

B4: 07G01 (antibody, V domains shown)
VH: EVKLLESGGGLVRPGGSLRLSCAASGFTLSNYAMSWVRQAPGKGLEWVSAISGVGITTYYADSVKGRFIISRDNSKNTVYLQMNSLRAEDTAVYYCAKSRGGGAFDYWGQGTLVTVSS
VL: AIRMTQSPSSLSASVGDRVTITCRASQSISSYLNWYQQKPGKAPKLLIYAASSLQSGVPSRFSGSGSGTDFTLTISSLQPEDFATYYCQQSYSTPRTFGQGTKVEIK
For the molecule B4, the “binding normalized to PSGL-1” value was found to be 1.44 in test [1]; 1.41 with SulfoTyr C4 peptide; 1.63 in [2]; 1.38 in [3]; 0.13 in test [4]; 1.66 in the test with SulfoCCK biotin peptide. In test [5], the A450nm stood at 1.69 A450nm. Also, the EC50 is over 500 nM in [6] and 3.7 nM in test [7]. Besides, in test [7], the “A450nm, 20 nM mAb” value is 2.58 A450nm. The binding result in test [8] is “no binding (tested: 20 nM)”.
